# Measurements taken from patent publication US20180016354A1 (Merck KGaA, published 2018).
# Numbering of substitutions follows the chain as printed. In names and notes the source's numbering stands.
# B1: one-armed domain-exchanged KiH antibody with SEED CH3 domains in the Fab, Variant 1 (antibody)
# heavy: not shown
# light: DIQMTQSPSSLSASVGDRVTITCSASSSVTYMYWYQQKPGKAPKLLIYDTSNLASGVPSRFSGSGSGTDYTFTISSLQPEDIATYYCQQWSSHIFTFGQGTKVEIKRTVAEPQVYTLPPPSEELALNELVTLTCLVKGFYPSDIAVEWLQGSQELPREKYLTWAPVLDSDGSFFLYSILRVAAEDWKKGDTFSCSVMHEALHNHYTQKSLDRSGEC
# chain: not shown
# notes: hu425 Fv; one Fab arm only; also called one-armed KiH antibody, CH3-SEED variant 1
# B2: One-armed anti-CD16 with the unengineered 3G8 Fab fused to the SEED AG heavy chain (antibody)
# heavy: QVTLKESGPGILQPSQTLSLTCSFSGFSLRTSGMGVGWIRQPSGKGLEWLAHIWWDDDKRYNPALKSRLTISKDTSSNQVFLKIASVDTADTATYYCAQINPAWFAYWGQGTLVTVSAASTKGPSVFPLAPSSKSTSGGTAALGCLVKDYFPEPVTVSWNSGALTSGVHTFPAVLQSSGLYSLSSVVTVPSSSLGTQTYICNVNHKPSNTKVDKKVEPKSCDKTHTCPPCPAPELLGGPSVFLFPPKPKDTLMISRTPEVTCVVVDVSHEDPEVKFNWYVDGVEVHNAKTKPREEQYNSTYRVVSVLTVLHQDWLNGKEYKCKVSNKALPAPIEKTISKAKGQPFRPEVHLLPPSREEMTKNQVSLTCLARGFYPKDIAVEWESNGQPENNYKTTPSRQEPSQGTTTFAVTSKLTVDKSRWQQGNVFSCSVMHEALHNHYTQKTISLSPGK
# chain: EPKSSDKTHTCPPCPAPELLGGPSVFLFPPKPKDTLMISRTPEVTCVVVDVSHEDPEVKFNWYVDGVEVHNAKTKPREEQYNSTYRVVSVLTVLHQDWLNGKEYKCKVSNKALPAPIEKTISKAKGQPREPQVYTLPPPSEELALNELVTLTCLVKGFYPSDIAVEWLQGSQELPREKYLTWAPVLDSDGSFFLYSILRVAAEDWKKGDTFSCSVMHEALHNHYTQKSLDRSPGK
# light: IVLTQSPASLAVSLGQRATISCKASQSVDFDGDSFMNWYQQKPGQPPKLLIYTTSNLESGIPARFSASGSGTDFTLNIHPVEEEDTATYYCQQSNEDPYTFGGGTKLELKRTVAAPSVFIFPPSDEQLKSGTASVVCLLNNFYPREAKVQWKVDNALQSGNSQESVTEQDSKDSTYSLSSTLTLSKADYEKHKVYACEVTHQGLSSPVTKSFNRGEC
# notes: One Fab arm only; also called one-armed anti-CD16 antibody
# B3: domain-exchanged heterodimeric bispecific antibody 1, BsAb1 (anti-CD3× anti-EGFR CH3-KiH) (bispecific antibody, human IgG1, kappa)
# heavy 1: QVQLVQSGAEVKKPGASVKVSCKASGYTFTSHWMHWVRQAPGQGLEWIGEFNPSNGRTNYNEKFKSKATMTVDTSTNTAYMELSSLRSEDTAVYYCASRDYDYDGRYFDYWGQGTLVTVSSASTKGEPQVYTLPPSRDELTKNQVSLYCLVKGFYPSDIAVEWESNGQPENNYKTTPPVLDSDGSFFLYSKLTVDKSRWQQGNVFSCSVMHEALHNHYTQKSLSLSKSCDKTHTCPPCPAPELLGGPSVFLFPPKPKDTLMISRTPEVTCVVVDVSHEDPEVKFNWYVDGVEVHNAKTKPREEQYNSTYRVVSVLTVLHQDWLNGKEYKCKVSNKALPAPIEKTISKAKGQPFRPEVHLLPPSREEMTKNQVSLTCLARGFYPKDIAVEWESNGQPENNYKTTPSRQEPSQGTTTFAVTSKLTVDKSRWQQGNVFSCSVMHEALHNHYTQKTISLSPGK
# heavy 2: QVQLVQSGGGVVQPGRSLRLSCKASGYTFTRYTMHWVRQAPGKGLEWIGYINPSRGYTNYNQKVKDRFTISRDNSKNTAFLQMDSLRPEDTGVYFCARYYDDHYCLDYWGQGTPVTVSSASTKGPSVFPLAPSSKSTSGGTAALGCLVKDYFPEPVTVSWNSGALTSGVHTFPAVLQSSGLYSLSSVVTVPSSSLGTQTYICNVNHKPSNTKVDKKVEPKSCDKTHTCPPCPAPELLGGPSVFLFPPKPKDTLMISRTPEVTCVVVDVSHEDPEVKFNWYVDGVEVHNAKTKPREEQYNSTYRVVSVLTVLHQDWLNGKEYKCKVSNKALPAPIEKTISKAKGQPREPQVYTLPPPSEELALNELVTLTCLVKGFYPSDIAVEWLQGSQELPREKYLTWAPVLDSDGSFFLYSILRVAAEDWKKGDTFSCSVMHEALHNHYTQKSLDRSPGK
# light 1: DIQMTQSPSSLSASVGDRVTITCSASSSVTYMYWYQQKPGKAPKLLIYDTSNLASGVPSRFSGSGSGTDYTFTISSLQPEDIATYYCQQWSSHIFTFGQGTKVEIKRTVAEPQVYTLPPSRDELTKNQVSLTCLVKGFYPSDIAVEWESNGQPENNYKTTPPVLDSDGSFFLTSKLTVDKSRWQQGNVFSCSVMHEALHNHYTQKSLSLSGEC
# light 2: DIQMTQSPSSLSASVGDRVTITCSASSSVSYMNWYQQTPGKAPKRWIYDTSKLASGVPSRFSGSGSGTDYTFTISSLQPEDIATYYCQQWSSNPFTFGQGTKLQITRTVAAPSVFIFPPSDEQLKSGTASVVCLLNNFYPREAKVQWKVDNALQSGNSQESVTEQDSKDSTYSLSSTLTLSKADYEKHKVYACEVTHQGLSSPVTKSFNRGEC
# notes: hu425 (Matuzumab) Fv in the CH3 domain-exchanged Fab arm, OKT3 Fv in the native Fab arm; SEED AG/GA Fc; also called domain-exchanged heterodimeric antibody 1; domain-exchanged bispecific antibody 1
# B4: Effector Negative (EN) isotype domain-exchanged bispecific antibody BsAb2 (anti-CD16× anti-EGFR CH3-KiH), BsAb2 EN (bispecific antibody, human IgG1, kappa)
# heavy 1: QVQLVQSGAEVKKPGASVKVSCKASGYTFTSHWMHWVRQAPGQGLEWIGEFNPSNGRTNYNEKFKSKATMTVDTSTNTAYMELSSLRSEDTAVYYCASRDYDYDGRYFDYWGQGTLVTVSSASTKGEPQVYTLPPSRDELTKNQVSLYCLVKGFYPSDIAVEWESNGQPENNYKTTPPVLDSDGSFFLYSKLTVDKSRWQQGNVFSCSVMHEALHNHYTQKSLSLSKSCDKTHTCPPCPAPPVAGPSVFLFPPKPKDTLMISRTPEVTCVVVDVSHEDPEVQFNWYVDGVEVHNAKTKPREEQAQSTFRVVSVLTVVHQDWLNGKEYKCKVSNKGLPAPIEKTISKTKGQPFRPEVHLLPPSREEMTKNQVSLTCLARGFYPKDIAVEWESNGQPENNYKTTPSRQEPSQGTTTFAVTSKLTVDKSRWQQGNVFSCSVMHEALHNHYTQKTISLSPGK
# heavy 2: not shown
# light 1: B3 light 1
# light 2: not shown
# notes: also called EN BsAb2; effector negative IgG2 variant of BsAb2
# B5: One-armed Effector Negative (EN) domain-exchanged anti-EGFR antibody (antibody)
# heavy: B4 heavy 1
# chain: EPKSSDKTHTCPPCPAPPVAGPSVFLFPPKPKDTLMISRTPEVTCVVVDVSHEDPEVQFNWYVDGVEVHNAKTKPREEQAQSTFRVVSVLTVVHQDWLNGKEYKCKVSNKGLPAPIEKTISKTKGQPREPQVYTLPPPSEELALNELVTLTCLVKGFYPSDIAVEWLQGSQELPREKYLTWAPVLDSDGSFFLYSILRVAAEDWKKGDTFSCSVMHEALHNHYTQKSLDRSPGK
# light: B3 light 1
# notes: One Fab arm only; effector negative Fc (modified IgG2 CH2 F296A, N297Q); also called one-armed domain-exchanged EN anti-EGFR antibody; one-armed effector negative anti-EGFR antibody
# B6: domain-exchanged bispecific antibody 2, BsAb2 (anti-CD16× anti-EGFR CH3-KiH) (bispecific antibody, human IgG1, kappa)
# heavy 1: B3 heavy 1
# heavy 2: not shown
# light 1: B3 light 1
# light 2: not shown
# notes: hu425 Fv in the domain-exchanged Fab arm, murine 3G8 (anti-CD16) Fv in the native Fab arm; also called effector positive BsAb2 variant
# B7: one-armed domain-exchanged KiH antibody with Charge pair CH3 domains in the Fab, Variant 2 (antibody)
# heavy: not shown
# light: B3 light 1 with D122K, L124M, D165K, T173Y
# chain: not shown
# notes: hu425 Fv; one Fab arm only; also called one-armed KiH antibody, Charge pair variant 2
# B8: one-armed domain-exchanged KiH antibody with Azymetric CH3 domains in the Fab, Variant 2 (antibody)
# heavy: not shown
# light: B3 light 1 with T116V, L117Y, D122E, L124M, F171A, T173V
# chain: not shown
# notes: hu425 Fv; one Fab arm only; also called one-armed KiH antibody, CH3-Azymetric variant 2
# B9: one-armed domain-exchanged KiH antibody with SEED CH3 domains in the Fab, Variant 2 (antibody)
# heavy: not shown
# light: DIQMTQSPSSLSASVGDRVTITCSASSSVTYMYWYQQKPGKAPKLLIYDTSNLASGVPSRFSGSGSGTDYTFTISSLQPEDIATYYCQQWSSHIFTFGQGTKVEIKRTVAPEVHLLPPSREEMTKNQVSLTCLARGFYPKDIAVEWESNGQPENNYKTTPSRQEPSQGTTTFAVTSKLTVDKSRWQQGNVFSCSVMHEALHNHYTQKTISLSGEC
# chain: not shown
# notes: hu425 Fv; one Fab arm only; also called one-armed KiH antibody, CH3-SEED variant 2
# Experiments:
# [1] = molecular target: T1, EGFR (on EGFR-expressing A431 cells) (UniProt P00533 25-1210, limits assumed); experiment: flow cytometry on EGFR-positive A431 cells
# T1 construct: whole, on cells; A431 is a human cell line; also called EGFR-positive cells; EGFR-overexpressing A431 cells
# CD16a receptor (FcγIIIa) [2] = molecular target: T2, CD16a receptor (FcγIIIa) (UniProt P08637 17-254, limits assumed); experiment: CD16a HTRF cellular binding assay, competition with labeled human IgG
# T2 construct: whole, on cells
# T2 sequence (P08637 17-254 limits assumed): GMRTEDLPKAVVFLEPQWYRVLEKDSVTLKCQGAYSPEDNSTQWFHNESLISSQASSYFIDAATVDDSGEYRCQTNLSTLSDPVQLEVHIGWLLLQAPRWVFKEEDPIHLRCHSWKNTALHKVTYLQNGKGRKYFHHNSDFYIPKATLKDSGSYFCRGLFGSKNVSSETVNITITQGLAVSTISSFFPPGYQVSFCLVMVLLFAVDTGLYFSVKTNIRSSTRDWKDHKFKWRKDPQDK
# Protocol: (§1) FIG. 14: Binding of antibodies to CD16a receptor. Binding was measured using CD16a HTRF cellular binding assay (CisBio). Measurement was performed in duplicates.
# [3] = molecular target: T1, EGFR (on EGFR-expressing A431 cells); experiment: flow cytometry on A431 cells
# [4] = molecular target: CD3 (on activated primary T cells) (UniProt P07766 23-207); experiment: cell-based or functional assay
# [5] = molecular target: T1, EGFR (on EGFR-expressing A431 cells); experiment: cell-based or functional assay
# CD16a receptor (FcγIIIa) [6] = molecular target: T2, CD16a receptor (FcγIIIa); experiment: cell-based or functional assay
# CD16a receptor (FcγIIIa) [7] = molecular target: T2, CD16a receptor (FcγIIIa); experiment: CD16a HTRF cellular binding assay (CisBio), competition with labeled human IgG
# Protocol: as §1
binder,measurement,setting,value
B1,binding result,[1],binds
B2,IC50,CD16a receptor (FcγIIIa) [2],~0.1 nM
B3,EC50,[3],~7 nM
same,EC50 of redirected lysis of A431 cells by activated T cells (LDH release),[4],0.1 to 0.3 nM
same,EC50 of redirected lysis of A431 cells by activated T cells (LDH release),[5],0.1 to 0.3 nM
B4,IC50,CD16a receptor (FcγIIIa) [2],~3.6 nM
same,EC50 of lysis of A431 cells by redirected NK cells (LDH release),[5],0.037 nM
same,lysis of A431 cells by redirected NK cells (LDH release),[5],≤ 50%
same,EC50 of lysis of A431 cells by redirected NK cells (LDH release),CD16a receptor (FcγIIIa) [6],0.037 nM
same,lysis of A431 cells by redirected NK cells (LDH release),CD16a receptor (FcγIIIa) [6],≤ 50%
B5,binding result,CD16a receptor (FcγIIIa) [7],no binding
B6,IC50,CD16a receptor (FcγIIIa) [2],~0.3 nM
same,EC50 of lysis of A431 cells by redirected NK cells (LDH release),[5],0.01 nM
same,lysis of A431 cells by redirected NK cells (LDH release),[5],≤ 50%
same,EC50 of lysis of A431 cells by redirected NK cells (LDH release),CD16a receptor (FcγIIIa) [6],0.01 nM
same,lysis of A431 cells by redirected NK cells (LDH release),CD16a receptor (FcγIIIa) [6],≤ 50%
B7,binding result,[1],binds
B8,binding result,[1],binds
B9,binding result,[1],binds
